Source: paper PMC8012715 (Nature Communications, 2021)

B1: Escherichia coli Nan repressor (NanR) (natural protein, E. coli K12, UniProt P0A8W0 1-263, looked up)
chain: MGLMNAFDSQTEDSSPAIGRNLRSRPLARKKLSEMVEEELEQMIRRREFGEGEQLPSERELMAFFNVGRPSVREALAALKRKGLVQINNGERARVSRPSADTIIGELSGMAKDFLSHPGGIAHFEQLRLFFESSLVRYAAEHATDEQIDLLAKALEINSQSLDNNAAFIRSDVDFHRVLAEIPGNPIFMAIHVALLDWLIAARPTVTDQALHEHNNVSYQQHIAIVDAIRRHDPDEADRALQSHLNSVSATWHAFGQTTNKKK
notes: NanR, GntR-type transcriptional repressor of E. coli K12; the synthesised nanR gene in pET28a; the dimer mass used (59 kDa) fits an untagged chain; Expressed with 100 uM ZnCl2; carries Zn2+; For the crystals the protein was treated in situ with chymotrypsin, and the cut limits are not known; also called wild-type NanR; E. coli NanR
B2: truncated NanR construct NanR^33–263 (domain or fragment, E. coli K12, UniProt P0A8W0 33-263, looked up)
chain: SEMVEEELEQMIRRREFGEGEQLPSERELMAFFNVGRPSVREALAALKRKGLVQINNGERARVSRPSADTIIGELSGMAKDFLSHPGGIAHFEQLRLFFESSLVRYAAEHATDEQIDLLAKALEINSQSLDNNAAFIRSDVDFHRVLAEIPGNPIFMAIHVALLDWLIAARPTVTDQALHEHNNVSYQQHIAIVDAIRRHDPDEADRALQSHLNSVSATWHAFGQTTNKKK
notes: amplified from nanR and cloned into pET28a; No tag is named

What was measured:
[1] = target: the molecule itself; assay: AUC; sedimentation velocity, absorbance at 280 nm, NanR alone at 3.3, 10 and 30 uM in 20 mM Tris-HCl pH 8.0, 150 mM NaCl, 20 °C, 50,000 rpm
[2] = target: the molecule itself; assay: AUC; multiwavelength sedimentation velocity (220-300 nm) of protein titrated against (GGTATA)3-repeat DNA, 50 mM sodium phosphate pH 7.4, 150 mM NaCl, 20 °C; oligomer told from the molar ratio of protein to DNA in co-migrating peaks

Row | Protein | stoichiometry N [1] | binding result [2]
1 | B1 | 2 | –
2 | B2 | – | binds
